Results published in US20160237156A1.
pIC50, pKi: −log10 of the molar value.

Columns and labels:
[1] = biological target: SNAP-tag-CXCR4 (Tag-lite labeled CXCR4 cells, Cisbio Bioassays) (UniProt P61073); assay: Tag-lite HTRF competition with 50 nM fluorescent SDF-1 on Tag-lite labeled CXCR4 cells
[2] = biological target: SNAP-tag-CXCR4 (Tag-lite labeled CXCR4 cells, Cisbio Bioassays) (UniProt P61073); assay: Tag-lite HTRF competition with 50 nM fluorescent SDF-1, Cheng-Prusoff
[3] = biological target: CXCR4 (human) (UniProt P61073); assay: cell-based or functional assay
CXCR4 (human), sequence (P61073 whole entry): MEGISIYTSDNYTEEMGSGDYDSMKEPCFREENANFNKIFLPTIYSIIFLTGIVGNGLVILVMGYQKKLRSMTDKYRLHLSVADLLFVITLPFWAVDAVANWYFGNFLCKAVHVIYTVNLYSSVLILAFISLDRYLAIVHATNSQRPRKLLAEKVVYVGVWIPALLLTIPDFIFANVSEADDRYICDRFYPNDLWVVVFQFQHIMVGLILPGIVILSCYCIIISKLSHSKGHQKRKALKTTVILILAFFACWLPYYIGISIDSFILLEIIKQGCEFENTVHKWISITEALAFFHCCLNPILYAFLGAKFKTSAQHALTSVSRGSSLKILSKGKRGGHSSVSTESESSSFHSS

SNAP-tag-CXCR4 (Tag-lite labeled CXCR4 cells, Cisbio Bioassays), sequence (P61073 whole entry): as above

pIC50 [1]: 8.36
pKi [2]: 9.01
inhibition of SDF-1 induced migration of Ramos cells, EC50 [3]: 2.1 nM
Substance: mouse anti-human CXCR4 monoclonal antibody (Clone 12G5, R&D system)
